Assay results taken from paper PMC9808567.

T1: PRPF39 NTD (human, UniProt Q86UA1 1-296)
T1 sequence: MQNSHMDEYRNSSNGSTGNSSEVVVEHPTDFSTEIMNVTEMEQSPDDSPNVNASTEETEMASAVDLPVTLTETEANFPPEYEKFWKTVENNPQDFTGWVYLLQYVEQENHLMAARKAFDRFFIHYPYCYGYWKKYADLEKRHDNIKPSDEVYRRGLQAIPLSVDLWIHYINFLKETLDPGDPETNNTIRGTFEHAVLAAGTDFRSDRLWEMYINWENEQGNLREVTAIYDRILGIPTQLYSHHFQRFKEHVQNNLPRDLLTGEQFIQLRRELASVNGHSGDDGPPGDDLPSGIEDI

T2: PRPF39 CTD (human, UniProt Q86UA1 297-669)
T2 sequence: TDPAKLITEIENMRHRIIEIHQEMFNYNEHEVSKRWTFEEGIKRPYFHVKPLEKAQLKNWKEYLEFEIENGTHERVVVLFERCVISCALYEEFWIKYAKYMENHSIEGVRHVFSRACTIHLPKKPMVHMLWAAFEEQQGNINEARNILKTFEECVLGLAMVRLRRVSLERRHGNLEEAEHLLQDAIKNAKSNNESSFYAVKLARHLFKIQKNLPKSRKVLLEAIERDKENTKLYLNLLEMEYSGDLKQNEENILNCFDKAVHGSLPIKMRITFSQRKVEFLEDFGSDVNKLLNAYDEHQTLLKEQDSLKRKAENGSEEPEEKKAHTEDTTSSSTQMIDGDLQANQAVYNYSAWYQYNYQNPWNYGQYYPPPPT

T3: PRPF39 full-length (human, UniProt Q86UA1 1-669)
T3 sequence: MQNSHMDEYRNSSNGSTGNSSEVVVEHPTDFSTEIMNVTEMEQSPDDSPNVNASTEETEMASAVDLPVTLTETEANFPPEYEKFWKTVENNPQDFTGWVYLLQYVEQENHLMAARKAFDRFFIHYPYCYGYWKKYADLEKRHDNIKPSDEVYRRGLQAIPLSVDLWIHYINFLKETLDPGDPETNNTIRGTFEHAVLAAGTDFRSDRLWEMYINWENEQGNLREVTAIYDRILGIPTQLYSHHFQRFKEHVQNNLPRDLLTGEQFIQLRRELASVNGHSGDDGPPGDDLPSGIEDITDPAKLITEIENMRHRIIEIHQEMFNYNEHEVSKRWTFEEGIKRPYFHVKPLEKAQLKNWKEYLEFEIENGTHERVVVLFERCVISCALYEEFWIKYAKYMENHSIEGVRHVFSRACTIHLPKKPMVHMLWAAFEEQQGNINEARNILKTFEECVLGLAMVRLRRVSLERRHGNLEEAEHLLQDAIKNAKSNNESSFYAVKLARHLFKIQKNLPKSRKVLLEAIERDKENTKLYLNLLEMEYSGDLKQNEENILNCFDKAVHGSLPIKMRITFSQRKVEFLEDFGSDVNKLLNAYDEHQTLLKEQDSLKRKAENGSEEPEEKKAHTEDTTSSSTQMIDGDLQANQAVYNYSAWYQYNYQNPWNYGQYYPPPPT

B1: 10 nt poly(A) RNA oligo (ssRNA)
RNA: AAAAAAAAAA
B2: GC-rich RNA oligo (ssRNA)
RNA: GGCCCCCCGG

Legend:
Experiment in all cases: EMSA
PRPF39 NTD = biological target: T1, PRPF39 NTD
PRPF39 CTD = biological target: T2, PRPF39 CTD
PRPF39 full-length = biological target: T3, PRPF39 full-length

Binder	binding result (PRPF39 NTD)	binding result (PRPF39 CTD)	Kd (PRPF39 full-length) [nM]
B1	no binding	no binding	
B2			516 ± 256
